Where two headings read alike, the source gives them in different places.
Experiments:
[1] = target: T1, human BCMA on BCMA expressing cell lines (human, UniProt Q02223 1-184); assay: cell-based or functional assay
T1 sequence: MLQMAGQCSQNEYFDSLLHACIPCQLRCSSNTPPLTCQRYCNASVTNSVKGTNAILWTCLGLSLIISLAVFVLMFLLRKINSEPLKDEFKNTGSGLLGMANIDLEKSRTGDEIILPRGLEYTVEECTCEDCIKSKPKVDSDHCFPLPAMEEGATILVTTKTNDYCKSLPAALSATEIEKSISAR

[2] = target: T1, human BCMA on BCMA expressing cell lines; assay: cell-based or functional assay; remark: listed apart in the source
human BCMA protein [3] = target: T2, human BCMA protein (human, UniProt Q02223 1-54, limits assumed); assay: affinity of purified protein to human BCMA protein, method not stated
T2 sequence: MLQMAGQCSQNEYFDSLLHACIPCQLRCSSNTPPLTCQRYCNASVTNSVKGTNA

[4] = target: T1, human BCMA on BCMA expressing cell lines; assay: cell-based or functional assay; remark: listed apart in the source
human BCMA protein [5] = target: T2, human BCMA protein; assay: affinity to human BCMA protein, method not stated

Row | Binder | TDCC Jeko1 EC50 [1] [pM] | TDCC MOLP-8 EC50 [1] [pM] | TDCC OPM-2 EC50 [1] [pM] | TDCC Jeko1 EC50 [2] [pM] | TDCC MOLP-8 EC50 [2] [pM] | TDCC OPM-2 EC50 [2] [pM] | Kd (human BCMA protein [3]) [pM] | TDCC EC50 (EJM cells) [4] [pM] | Kd (human BCMA protein [5]) [pM]
1 | BH2T TriTAC (protein, part only; not given: anti-albumin and anti-CD3 domains, part only) chain, part: EVQLVESGGGLVQPGRSLTLSCAASTNIFSISPMGWYRQAPGKQRELVAAIHGFSTLYADSVKGRFTISRDNAKNSIYLQMNSLRPEDTALYYCNKVPWGDYHPRNVYWGQGTQVTVSSHHHHHH | 320 | 200 | 160 |  |  |  |  |  | 
2 | 01F07-M34G TriTAC (other, not shown: large carriers; small tags and cut ends, trispecific; also called 01F01-M34G) VHH: EVQLVESGGGLVQPGRSLTLSCAASTNIFSTSPGGWYRQAPGKQRELVAAIHGFSTIYADSVKGRFTISRDNAKNSIYLQMNSLRPEDTALYYCNKVPWGDYHPGNVYWGQGTQVTVSS |  |  |  | 9 | 2.2 | 5.6 | 6000 |  | 
3 | 01F07-M34Y TriTAC (other, trispecific; not shown: anti-albumin domain, anti-CD3 domain and the linkers of the TriTAC; the C-terminal His6 that follows them is left out) VHH: EVQLVESGGGLVQPGRSLTLSCAASTNIFSTSPYGWYRQAPGKQRELVAAIHGFSTIYADSVKGRFTISRDNAKNSIYLQMNSLRPEDTALYYCNKVPWGDYHPGNVYWGQGTQVTVSS |  |  |  | 5.6 | 1.5 | 3.6 | 3000 |  | 
4 | BCMA targeting trispecific protein 02F04 (other, not shown: large carriers; small tags and cut ends, trispecific; also called 02F04 TriTAC) VHH: EVQLVESGGGLVQPGRSLTLSCAASTNIFSSSPMGWYRQAPGKQRELVAAIHGFSTLYADSVKGRFTISRDNAKNSIYLQMNSLRPEDTALYYCNKVPWGDYHPGNVYWGQGTQVTVSS |  |  |  | 10 | 2.5 | 7.3 |  | 1.72 | 6750
5 | BCMA targeting trispecific protein 02G02 (other, trispecific; also called 02G02 TriTAC; not shown: anti-albumin domain, anti-CD3 domain and the linkers of the trispecific (TriTAC) format) VHH: EVQLVESGGGLVQPGRSLTLSCAASTNIFSITPMGWYRQAPGKQRELVAAIHGASTLYADSVKGRFTISRDNAKNSIYLQMNSLRPEDTALYYCNKVPWGDYHPGNVYWGQGTQVTVSS |  |  |  | 11 | 2.8 | 6.6 |  | 1.08 | 5260
6 | 02G02-M34Y TriTAC (other, not shown: large carriers; small tags and cut ends, trispecific) VHH: EVQLVESGGGLVQPGRSLTLSCAASTNIFSITPYGWYRQAPGKQRELVAAIHGASTLYADSVKGRFTISRDNAKNSIYLQMNSLRPEDTALYYCNKVPWGDYHPGNVYWGQGTQVTVSS |  |  |  | 11 | 5.6 | 6.2 | 5000 |  | 
7 | 02G02-M34G TriTAC (other, not shown: large carriers; small tags and cut ends, trispecific) VHH: EVQLVESGGGLVQPGRSLTLSCAASTNIFSITPGGWYRQAPGKQRELVAAIHGASTLYADSVKGRFTISRDNAKNSIYLQMNSLRPEDTALYYCNKVPWGDYHPGNVYWGQGTQVTVSS |  |  |  | 12 | 4 | 7.1 | 7000 |  | 

From patent publication US20240327534A1 (HARPOON THERAPEUTICS, published 2024)
